These results are taken from the supplement of paper PMC11908140.

B1: library; numbered along this chain (parent)
chain: MRKPRAAVGSGHRKQAASQEGRQKHAKNNSQAKPSACDGLARQPEEVVLQASVSSYHLFRDVAEVTAFRGSLLSWYDQEKRDLPWRRRAEDEMDLDRRAYAVWVSEVMLQQTQVATVINYYTGWMQKWPTLQDLASASLEEVNQLWAGLGYYSRGRRLQEGARKVVEELGGHMPRTAETLQQLLPGVGRYTAGAIASIAFGQATGVVDGNVARVLCRVRAIGADPSSTLVSQQLWGLAQQLVDPARPGDFNQAAMELGATVCTPQRPLCSQCPVESLCRARQRVEQEQLLASGSLSGSPDVEECAPNTGQCHLCLPPSEPWDQTLGVVNFPRKASRKPPREESSATCVLEQPGALGAQILLVQRPNSGLLAGLWEFPSVTWEPSEQLQRKALLQELQRWAGPLPATHLRHLGEVVHTFSHIKLTYQVYGLALEGQTPVTTVPPGARWLTQEEFHTAAVSTAMKKVFRVYQGQQPGTCMGSKRSQVSSPCSRKKPRMGQQVLDNFFRSHISTDAHSLNSAAQ

The series covers variants of B1. In words: 8OG:A repair function score (normalized; synonymous = 0, nonsense = -1) (normalized log-likelihood score); higher = more repair activity (WT-like). Particulars: with 8OG:A DNA repair reporter (GFP) in HEK-293 MUTYH KO cells. As for the experimental part:
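Saturation mutagenesis (NNN codon scan) of the MUTYH cDNA (521-aa nuclear isoform NM_001048174.1 / NP_001041639), stably expressed under doxycycline induction in HEK-293 MUTYH knockout cells. Cells were co-transfected with an 8OG:A-bearing GFP repair reporter plus mCherry and sorted 72 h later into GFP+ and GFP− bins, three replicates per tile. The Rosace log2 enrichment (GFP+ vs GFP−) was converted per tile to a normalized function score with synonymous variants centered at 0 and nonsense variants (codons 1-471) at -1; low-abundance variants were removed.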
For MRKPRFAVGSGHRKQAASQEGRQKHAKNNSQAKPSACDGLARQPEEVVLQASVSSYHLFRDVAEVTAFRGSLLSWYDQEKRDLPWRRRAEDEMDLDRRAYAVWVSEVMLQQTQVATVINYYTGWMQKWPTLQDLASASLEEVNQLWAGLGYYSRGRRLQEGARKVVEELGGHMPRTAETLQQLLPGVGRYTAGAIASIAFGQATGVVDGNVARVLCRVRAIGADPSSTLVSQQLWGLAQQLVDPARPGDFNQAAMELGATVCTPQRPLCSQCPVESLCRARQRVEQEQLLASGSLSGSPDVEECAPNTGQCHLCLPPSEPWDQTLGVVNFPRKASRKPPREESSATCVLEQPGALGAQILLVQRPNSGLLAGLWEFPSVTWEPSEQLQRKALLQELQRWAGPLPATHLRHLGEVVHTFSHIKLTYQVYGLALEGQTPVTTVPPGARWLTQEEFHTAAVSTAMKKVFRVYQGQQPGTCMGSKRSQVSSPCSRKKPRMGQQVLDNFFRSHISTDAHSLNSAAQ [A6F], the “8OG:A repair function score” value was 0.0517.
As to MRKPRAAVGSGHRKQAASQEGRQKHAKNNSQAKPSACDGLARQPEEVVLQASVSSYHLFRDVAEVTAFRGSLLSWYDQEKRDLPWRRRAEDEMDLDRRAYAVWVSEVMLQQTQVATVINYYTGWMQKWPTLQDLASASLEEVNQLWAGLGYYSRGRRLQEGARKVVEELLGHMPRTAETLQQLLPGVGRYTAGAIASIAFGQATGVVDGNVARVLCRVRAIGADPSSTLVSQQLWGLAQQLVDPARPGDFNQAAMELGATVCTPQRPLCSQCPVESLCRARQRVEQEQLLASGSLSGSPDVEECAPNTGQCHLCLPPSEPWDQTLGVVNFPRKASRKPPREESSATCVLEQPGALGAQILLVQRPNSGLLAGLWEFPSVTWEPSEQLQRKALLQELQRWAGPLPATHLRHLGEVVHTFSHIKLTYQVYGLALEGQTPVTTVPPGARWLTQEEFHTAAVSTAMKKVFRVYQGQQPGTCMGSKRSQVSSPCSRKKPRMGQQVLDNFFRSHISTDAHSLNSAAQ [G170L], the “8OG:A repair function score” value was -0.232.
In the case of MRKPRAAVGSGHRKQAASQEGRQKHAKNNSQAKPSACDGLARQPEEVVLQASVSSYHLFRDVAEVTAFRGSLLSWYDQEKRDLPWRRRAEDEMDLDRRAYAVWVSEVMLQQTQVATVINYYTGWMQKWPTLQDLASASLEEVNQLWAGLGYFSRGRRLQEGARKVVEELGGHMPRTAETLQQLLPGVGRYTAGAIASIAFGQATGVVDGNVARVLCRVRAIGADPSSTLVSQQLWGLAQQLVDPARPGDFNQAAMELGATVCTPQRPLCSQCPVESLCRARQRVEQEQLLASGSLSGSPDVEECAPNTGQCHLCLPPSEPWDQTLGVVNFPRKASRKPPREESSATCVLEQPGALGAQILLVQRPNSGLLAGLWEFPSVTWEPSEQLQRKALLQELQRWAGPLPATHLRHLGEVVHTFSHIKLTYQVYGLALEGQTPVTTVPPGARWLTQEEFHTAAVSTAMKKVFRVYQGQQPGTCMGSKRSQVSSPCSRKKPRMGQQVLDNFFRSHISTDAHSLNSAAQ [Y152F], the “8OG:A repair function score” value was -0.371.
MRKPRAAVGSGHRKQAASQEGRQKHAKNNSQAKPSACDGLARQPEEVVLQASVSSYHLFRDVAEVTAFRGSLLSWYDQEKRDLPWRRRAEDEMDLDRRAYAVWVSEVMLQQTQVATVINYYTGWMQKWPTLQDLASASLEEVNQLWAGLGYYSRGRRLQEGARKVVEELGGHMPRTAETLQQLLPGVGRYTAGAIASIAFGQATGVVDGNVARVLCRVRAIGADPSSTLVSQQLWGLAQQLVDPARPGDFNQAAMELGATVCTPQRPLCSQCPVESLCRARQRVEQEQLLASGSLSGSPDVEECAPNTGQCHLCLPPSEPWDQTLGVVNFPRKASRKPPREESSATCVLEQPGALGAQILLVQRPNSGLLAGLWEFPSVTWEPSEQLQRKALLQELQRWAGPLPATHLRHLGEVVHTFSHIKLTYQVYGLALEGQTPVTTVPPGARWLTQEEFHTAPVSTAMKKVFRVYQGQQPGTCMGSKRSQVSSPCSRKKPRMGQQVLDNFFRSHISTDAHSLNSAAQ [A457P]: the “8OG:A repair function score” value was -0.15.
Regarding MRKPRAAVGSGHRKQAASQEGRQKHAKNNSQAKPSACDGLARQPEEVVLQASVSSYHLFRDVAEVTAFRGSLLSWYDQEKRDLPWRRRAEDEMDLDRRAYAVWVSEVMLQQTQVATVINYYTGWMQKWPTLQDLASASLEEVNQLWAGLGYYSRGRRLQEGARKVVEELGGHMPRTAETLQQLLPGVGRYTAGAIASIAFGQATGVVDGNVARVLCRVRAIGADPSSTLVSQQLWGLAQQLVDPARPGDFNQAAMELGATVCTPQRPLCSQCPVESLCRARQRVEQEQLLASGSLSGSPDVEECAPNTGQCHLCLPPSEPWDQTLGVVNFPRKASRKPPREESSATCVLEQPGALGAQILLVQRPNSGLLAGLWEFPSVTWEPSEQLQRKALLQELQRWAGPLPATFLRHLGEVVHTFSHIKLTYQVYGLALEGQTPVTTVPPGARWLTQEEFHTAAVSTAMKKVFRVYQGQQPGTCMGSKRSQVSSPCSRKKPRMGQQVLDNFFRSHISTDAHSLNSAAQ [H407F], the “8OG:A repair function score” value was -0.245.
To MRKPRAAVGSGHRKQAASQEGRQKHAKNNSQAKPSACDGLARQPEEVVLQASVSSYHLFRDVAEVTAFRGSLLSWYDQEKRDLPWRRRAEDEMDLDRRAYAVWVSEVMLQQTQVATVINYYTGWMQKWPTLQDLASASLEEVNQLWAGLGYYSRGRRLQEGARKVVEELGGHMPRTAETLQQLLPGVGRYTAGAIASIAFGQATGVVDGNVARVLCRVRAIGADPSSTLVSQQLWGLAQQLVDPARPGDFNQAAMELGATVCTPQRPLCSQCPVESLCRARQRVEQEQLLASGSLSGSPDVEECAPNTGQCHLCLPPSEPWDQTLGVVNFPRKASRKPPREESSATCVLEQPGALGAQILLVQRPNSGLLAGLWEFPSVTWEPSEQLQRKALLQELQRWAGPLPATHLRHLGEVVHTFSHIKLTYQVYGLALEGQTPVTTVPPGARWLTQEEFHTAAVSTAMKKVFRVYQGQQPGTCMQSKRSQVSSPCSRKKPRMGQQVLDNFFRSHISTDAHSLNSAAQ [G479Q] belongs 0.0264.
